Data from article PMC4411359.

Target: YFP-tagged CREB-binding protein (UniProt Q92793)
Assay: MST

Sequence of UniProt Q92793 (Q92793 whole entry): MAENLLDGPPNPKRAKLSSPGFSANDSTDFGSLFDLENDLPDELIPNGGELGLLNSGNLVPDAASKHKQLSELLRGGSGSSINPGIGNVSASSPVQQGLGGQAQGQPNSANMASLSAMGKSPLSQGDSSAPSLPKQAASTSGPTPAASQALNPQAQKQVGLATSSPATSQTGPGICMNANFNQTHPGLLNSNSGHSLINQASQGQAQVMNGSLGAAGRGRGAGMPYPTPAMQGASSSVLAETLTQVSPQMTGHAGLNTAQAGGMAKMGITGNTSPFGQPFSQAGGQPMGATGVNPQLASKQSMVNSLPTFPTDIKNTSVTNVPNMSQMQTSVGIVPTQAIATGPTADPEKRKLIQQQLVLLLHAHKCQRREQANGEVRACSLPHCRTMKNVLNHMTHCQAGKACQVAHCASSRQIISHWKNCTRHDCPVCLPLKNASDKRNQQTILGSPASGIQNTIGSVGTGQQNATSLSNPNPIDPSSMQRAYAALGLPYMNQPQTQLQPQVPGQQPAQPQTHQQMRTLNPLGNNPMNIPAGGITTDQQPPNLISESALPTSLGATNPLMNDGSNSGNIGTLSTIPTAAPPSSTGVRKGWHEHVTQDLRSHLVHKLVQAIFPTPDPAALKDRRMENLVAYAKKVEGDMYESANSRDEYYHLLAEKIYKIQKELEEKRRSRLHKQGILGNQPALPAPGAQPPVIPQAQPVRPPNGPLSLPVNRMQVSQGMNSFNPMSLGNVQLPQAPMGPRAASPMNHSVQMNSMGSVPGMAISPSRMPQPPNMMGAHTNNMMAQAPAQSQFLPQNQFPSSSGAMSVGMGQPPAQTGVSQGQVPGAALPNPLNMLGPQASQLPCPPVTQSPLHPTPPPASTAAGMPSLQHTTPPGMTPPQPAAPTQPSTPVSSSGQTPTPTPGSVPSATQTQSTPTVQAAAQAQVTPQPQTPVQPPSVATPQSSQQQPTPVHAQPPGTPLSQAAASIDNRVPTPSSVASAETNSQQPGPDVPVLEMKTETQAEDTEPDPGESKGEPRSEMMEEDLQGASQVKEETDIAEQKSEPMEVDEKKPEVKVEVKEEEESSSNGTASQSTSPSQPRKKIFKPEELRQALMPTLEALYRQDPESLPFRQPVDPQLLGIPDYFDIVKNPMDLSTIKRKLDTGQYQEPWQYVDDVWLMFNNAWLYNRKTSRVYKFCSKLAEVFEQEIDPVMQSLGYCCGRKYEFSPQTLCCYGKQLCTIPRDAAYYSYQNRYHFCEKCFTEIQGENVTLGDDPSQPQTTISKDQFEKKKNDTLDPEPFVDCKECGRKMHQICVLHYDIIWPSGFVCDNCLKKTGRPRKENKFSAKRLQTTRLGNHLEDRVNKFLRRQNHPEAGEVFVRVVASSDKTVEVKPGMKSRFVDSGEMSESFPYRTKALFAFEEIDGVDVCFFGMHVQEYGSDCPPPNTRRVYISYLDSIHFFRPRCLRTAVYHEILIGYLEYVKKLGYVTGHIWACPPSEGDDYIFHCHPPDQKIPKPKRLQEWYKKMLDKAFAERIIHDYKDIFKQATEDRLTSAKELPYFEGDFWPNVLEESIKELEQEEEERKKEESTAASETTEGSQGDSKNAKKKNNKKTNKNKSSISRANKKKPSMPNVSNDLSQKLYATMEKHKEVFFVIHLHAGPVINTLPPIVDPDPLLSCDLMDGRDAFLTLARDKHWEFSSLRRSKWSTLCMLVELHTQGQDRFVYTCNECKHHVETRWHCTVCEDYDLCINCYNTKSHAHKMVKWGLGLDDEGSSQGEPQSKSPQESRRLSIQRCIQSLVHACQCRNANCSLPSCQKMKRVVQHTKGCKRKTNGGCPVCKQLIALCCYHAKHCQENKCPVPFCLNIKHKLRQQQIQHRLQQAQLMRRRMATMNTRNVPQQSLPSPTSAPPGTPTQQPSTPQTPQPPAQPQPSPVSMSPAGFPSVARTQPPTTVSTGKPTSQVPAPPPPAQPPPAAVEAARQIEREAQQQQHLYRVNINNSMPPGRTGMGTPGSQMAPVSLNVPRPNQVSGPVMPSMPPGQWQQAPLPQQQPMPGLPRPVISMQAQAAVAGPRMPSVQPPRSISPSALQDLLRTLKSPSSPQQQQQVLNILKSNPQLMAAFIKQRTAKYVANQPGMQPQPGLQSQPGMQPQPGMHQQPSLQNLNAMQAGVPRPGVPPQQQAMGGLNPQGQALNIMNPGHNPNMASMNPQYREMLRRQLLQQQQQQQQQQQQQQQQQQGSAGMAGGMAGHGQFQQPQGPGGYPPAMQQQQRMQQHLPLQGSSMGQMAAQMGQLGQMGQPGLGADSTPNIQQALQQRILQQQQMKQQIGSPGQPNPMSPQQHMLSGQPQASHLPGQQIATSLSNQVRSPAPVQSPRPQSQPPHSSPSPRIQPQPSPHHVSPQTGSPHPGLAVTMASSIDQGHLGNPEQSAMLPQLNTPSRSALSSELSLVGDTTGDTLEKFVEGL

Substance: HA-tagged human thymine DNA glycosylase P65A mutant (from UniProt Q13569 1-410) (enzyme)
- fold decrease of affinity against wild-type HA-TDG: > 3 fold
